From paper PMC13544220, “Glycemic and bodyweight effects of GIPR coding variation reflect differences in surface expression and intrinsic functional impairment” (Science Advances, 2026)

B1: p.Arg131Ser (protein, UniProt P48546 22-466, looked up, variant R131S)
Gastric inhibitory …: RAETGSKGQTAGELYQRWERYRRECQETLAAAEPPSGLACNGSFDMYVCWDYAAPNATARASCPWYLPWHHHVAAGFVLRQCGSDGQWGLWRDHTQCENPEKNEAFLDQSLILERLQVMYTVGYSLSLATLLLALLILSLFRRLHCTRNYIHINLFTSFMLRAAAILSRDRLLPRPGPYLGDQALALWNQALAACRTAQIVTQYCVGANYTWLLVEGVYLHSLLVLVGGSEEGHFRYYLLLGWGAPALFVIPWVIVRYLYENTQCWERNEVKAIWWIIRTPILMTILINFLIFIRILGILLSKLRTRQMRCRDYRLRLARSTLTLVPLLGVHEVVFAPVTEEQARGALRFAKLGFEIFLSSFQGFLVSVLYCFINKEVQSEIRRGWHHCRLRRSLGEEQRQLPERAFRALPSGSGPGEVPTSRGLSSGTLPGPGNEASRELESYC
B2: p.Ala207Val (protein, UniProt P48546 22-466, looked up, variant A207V)
Gastric inhibitory …: RAETGSKGQTAGELYQRWERYRRECQETLAAAEPPSGLACNGSFDMYVCWDYAAPNATARASCPWYLPWHHHVAAGFVLRQCGSDGQWGLWRDHTQCENPEKNEAFLDQRLILERLQVMYTVGYSLSLATLLLALLILSLFRRLHCTRNYIHINLFTSFMLRAAAILSRDRLLPRPGPYLGDQALVLWNQALAACRTAQIVTQYCVGANYTWLLVEGVYLHSLLVLVGGSEEGHFRYYLLLGWGAPALFVIPWVIVRYLYENTQCWERNEVKAIWWIIRTPILMTILINFLIFIRILGILLSKLRTRQMRCRDYRLRLARSTLTLVPLLGVHEVVFAPVTEEQARGALRFAKLGFEIFLSSFQGFLVSVLYCFINKEVQSEIRRGWHHCRLRRSLGEEQRQLPERAFRALPSGSGPGEVPTSRGLSSGTLPGPGNEASRELESYC
B3: p.Arg136Trp (protein, UniProt P48546 22-466, looked up, variant R136W)
Gastric inhibitory …: RAETGSKGQTAGELYQRWERYRRECQETLAAAEPPSGLACNGSFDMYVCWDYAAPNATARASCPWYLPWHHHVAAGFVLRQCGSDGQWGLWRDHTQCENPEKNEAFLDQRLILEWLQVMYTVGYSLSLATLLLALLILSLFRRLHCTRNYIHINLFTSFMLRAAAILSRDRLLPRPGPYLGDQALALWNQALAACRTAQIVTQYCVGANYTWLLVEGVYLHSLLVLVGGSEEGHFRYYLLLGWGAPALFVIPWVIVRYLYENTQCWERNEVKAIWWIIRTPILMTILINFLIFIRILGILLSKLRTRQMRCRDYRLRLARSTLTLVPLLGVHEVVFAPVTEEQARGALRFAKLGFEIFLSSFQGFLVSVLYCFINKEVQSEIRRGWHHCRLRRSLGEEQRQLPERAFRALPSGSGPGEVPTSRGLSSGTLPGPGNEASRELESYC
B4: p.Arg183Gln (protein, UniProt P48546 22-466, looked up, variant R183Q)
Gastric inhibitory …: RAETGSKGQTAGELYQRWERYRRECQETLAAAEPPSGLACNGSFDMYVCWDYAAPNATARASCPWYLPWHHHVAAGFVLRQCGSDGQWGLWRDHTQCENPEKNEAFLDQRLILERLQVMYTVGYSLSLATLLLALLILSLFRRLHCTRNYIHINLFTSFMLQAAAILSRDRLLPRPGPYLGDQALALWNQALAACRTAQIVTQYCVGANYTWLLVEGVYLHSLLVLVGGSEEGHFRYYLLLGWGAPALFVIPWVIVRYLYENTQCWERNEVKAIWWIIRTPILMTILINFLIFIRILGILLSKLRTRQMRCRDYRLRLARSTLTLVPLLGVHEVVFAPVTEEQARGALRFAKLGFEIFLSSFQGFLVSVLYCFINKEVQSEIRRGWHHCRLRRSLGEEQRQLPERAFRALPSGSGPGEVPTSRGLSSGTLPGPGNEASRELESYC
B5: p.Arg217Leu (protein, UniProt P48546 22-466, looked up, variant R217L)
Gastric inhibitory …: RAETGSKGQTAGELYQRWERYRRECQETLAAAEPPSGLACNGSFDMYVCWDYAAPNATARASCPWYLPWHHHVAAGFVLRQCGSDGQWGLWRDHTQCENPEKNEAFLDQRLILERLQVMYTVGYSLSLATLLLALLILSLFRRLHCTRNYIHINLFTSFMLRAAAILSRDRLLPRPGPYLGDQALALWNQALAACLTAQIVTQYCVGANYTWLLVEGVYLHSLLVLVGGSEEGHFRYYLLLGWGAPALFVIPWVIVRYLYENTQCWERNEVKAIWWIIRTPILMTILINFLIFIRILGILLSKLRTRQMRCRDYRLRLARSTLTLVPLLGVHEVVFAPVTEEQARGALRFAKLGFEIFLSSFQGFLVSVLYCFINKEVQSEIRRGWHHCRLRRSLGEEQRQLPERAFRALPSGSGPGEVPTSRGLSSGTLPGPGNEASRELESYC
B6: p.Leu262Val (protein, UniProt P48546 22-466, looked up, variant L262V)
Gastric inhibitory …: RAETGSKGQTAGELYQRWERYRRECQETLAAAEPPSGLACNGSFDMYVCWDYAAPNATARASCPWYLPWHHHVAAGFVLRQCGSDGQWGLWRDHTQCENPEKNEAFLDQRLILERLQVMYTVGYSLSLATLLLALLILSLFRRLHCTRNYIHINLFTSFMLRAAAILSRDRLLPRPGPYLGDQALALWNQALAACRTAQIVTQYCVGANYTWLLVEGVYLHSLLVLVGGSEEGHFRYYLLVGWGAPALFVIPWVIVRYLYENTQCWERNEVKAIWWIIRTPILMTILINFLIFIRILGILLSKLRTRQMRCRDYRLRLARSTLTLVPLLGVHEVVFAPVTEEQARGALRFAKLGFEIFLSSFQGFLVSVLYCFINKEVQSEIRRGWHHCRLRRSLGEEQRQLPERAFRALPSGSGPGEVPTSRGLSSGTLPGPGNEASRELESYC
B7: p.Leu262His (protein, UniProt P48546 22-466, looked up, variant L262H)
Gastric inhibitory …: RAETGSKGQTAGELYQRWERYRRECQETLAAAEPPSGLACNGSFDMYVCWDYAAPNATARASCPWYLPWHHHVAAGFVLRQCGSDGQWGLWRDHTQCENPEKNEAFLDQRLILERLQVMYTVGYSLSLATLLLALLILSLFRRLHCTRNYIHINLFTSFMLRAAAILSRDRLLPRPGPYLGDQALALWNQALAACRTAQIVTQYCVGANYTWLLVEGVYLHSLLVLVGGSEEGHFRYYLLHGWGAPALFVIPWVIVRYLYENTQCWERNEVKAIWWIIRTPILMTILINFLIFIRILGILLSKLRTRQMRCRDYRLRLARSTLTLVPLLGVHEVVFAPVTEEQARGALRFAKLGFEIFLSSFQGFLVSVLYCFINKEVQSEIRRGWHHCRLRRSLGEEQRQLPERAFRALPSGSGPGEVPTSRGLSSGTLPGPGNEASRELESYC
B8: p.Arg190Gln (protein, UniProt P48546 22-466, looked up, variant R190Q)
Gastric inhibitory …: RAETGSKGQTAGELYQRWERYRRECQETLAAAEPPSGLACNGSFDMYVCWDYAAPNATARASCPWYLPWHHHVAAGFVLRQCGSDGQWGLWRDHTQCENPEKNEAFLDQRLILERLQVMYTVGYSLSLATLLLALLILSLFRRLHCTRNYIHINLFTSFMLRAAAILSQDRLLPRPGPYLGDQALALWNQALAACRTAQIVTQYCVGANYTWLLVEGVYLHSLLVLVGGSEEGHFRYYLLLGWGAPALFVIPWVIVRYLYENTQCWERNEVKAIWWIIRTPILMTILINFLIFIRILGILLSKLRTRQMRCRDYRLRLARSTLTLVPLLGVHEVVFAPVTEEQARGALRFAKLGFEIFLSSFQGFLVSVLYCFINKEVQSEIRRGWHHCRLRRSLGEEQRQLPERAFRALPSGSGPGEVPTSRGLSSGTLPGPGNEASRELESYC
B9: p.Ala268Val (protein, UniProt P48546 22-466, looked up, variant A268V)
Gastric inhibitory …: RAETGSKGQTAGELYQRWERYRRECQETLAAAEPPSGLACNGSFDMYVCWDYAAPNATARASCPWYLPWHHHVAAGFVLRQCGSDGQWGLWRDHTQCENPEKNEAFLDQRLILERLQVMYTVGYSLSLATLLLALLILSLFRRLHCTRNYIHINLFTSFMLRAAAILSRDRLLPRPGPYLGDQALALWNQALAACRTAQIVTQYCVGANYTWLLVEGVYLHSLLVLVGGSEEGHFRYYLLLGWGAPVLFVIPWVIVRYLYENTQCWERNEVKAIWWIIRTPILMTILINFLIFIRILGILLSKLRTRQMRCRDYRLRLARSTLTLVPLLGVHEVVFAPVTEEQARGALRFAKLGFEIFLSSFQGFLVSVLYCFINKEVQSEIRRGWHHCRLRRSLGEEQRQLPERAFRALPSGSGPGEVPTSRGLSSGTLPGPGNEASRELESYC
B10: p.Glu252Asp (protein, UniProt P48546 22-466, looked up, variant E252D)
Gastric inhibitory …: RAETGSKGQTAGELYQRWERYRRECQETLAAAEPPSGLACNGSFDMYVCWDYAAPNATARASCPWYLPWHHHVAAGFVLRQCGSDGQWGLWRDHTQCENPEKNEAFLDQRLILERLQVMYTVGYSLSLATLLLALLILSLFRRLHCTRNYIHINLFTSFMLRAAAILSRDRLLPRPGPYLGDQALALWNQALAACRTAQIVTQYCVGANYTWLLVEGVYLHSLLVLVGGSDEGHFRYYLLLGWGAPALFVIPWVIVRYLYENTQCWERNEVKAIWWIIRTPILMTILINFLIFIRILGILLSKLRTRQMRCRDYRLRLARSTLTLVPLLGVHEVVFAPVTEEQARGALRFAKLGFEIFLSSFQGFLVSVLYCFINKEVQSEIRRGWHHCRLRRSLGEEQRQLPERAFRALPSGSGPGEVPTSRGLSSGTLPGPGNEASRELESYC

What was measured:
[1] = system: wild-type and variant SNAP-GIPR; assay: Surface SNAP-GIPR expression (SNAP-tag labelling) in AD293 cells; assay type: cell-based, human; details: level of surface expression, based on in vitro functional data in AD293 cells; summary classification
Procedure: Twenty-four hours before the experiment, AD293 or INS-1 cells were reverse transfected with GIPR variant or wild-type plasmids using Lipofectamine 2000 in 96-well, clear-bottom, black microplates precoated with poly-D-lysine. All variants were tested in parallel on each occasion to control for transfection efficiency differences between experiments. Cells were then labeled using the cell-impermeant probe SNAP-Surface Alexa Fluor 647 (500 nM, New England Biolabs, USA) for 10 min at room temperature to label only surface GIPR. […] Several fields of view (FOVs) were acquired within each well using a 20X, 0.75–numerical aperture (NA) air objective. Surface GIPR fluorescence was quantified after flat-field correction using BaSiC ([72]) and segmenting using Phantast ([73]), which generates a mask based on the phase contrast images to demarcate cell versus noncell. Wide-field imaging of the surface-specific labeling achieved by SNAP-Surface probes means that surface expression can be established from whole-cell fluorescence, after subtracting nonspecific fluorescence from a separate well containing nontransfected cells processed in parallel from the same experiment. Data were normalized by dividing by the average specific signal across each experiment, or by the wild-type value, as indicated in the figure legends.

[2] = system: wild-type and variant SNAP-GIPR; assay: Single-concentration GIP cAMP response by HTRF in AD293 cells; assay type: cell-based, human; details: cAMP responses to 100 pM GIP in AD293 cells; summary classification (decrease/neutral/increase)
Procedure: All variants were tested in parallel on each occasion to control for transfection efficiency differences between experiments.

Row | Molecule | Surface expression [1] | cAMP response [2]
1 | B1 | neutral | decrease
2 | B2 | neutral | neutral
3 | B3 | neutral | decrease
4 | B4 | decrease | decrease
5 | B5 | decrease | decrease
6 | B6 | neutral | neutral
7 | B7 | decrease | decrease
8 | B8 | decrease | decrease
9 | B9 | neutral | increase
10 | B10 | neutral | increase
